We go through 1 protein from publication PMC3834196, “High Resolution Crystal Structure of Human β-Glucuronidase Reveals Structural Basis of Lysosome Targeting” (PLoS ONE, 2013).

This series concerns the molecule itself. Description: crystal structure; vapor diffusion, 50 mM Tris pH 7.5, 15% MPD, 25°C; four monomers (A, B, D, E) in the asymmetric unit; refined to 1.7 Å.

B1: Human β-glucuronidase (enzyme, UniProt P08236 23-651, looked up)
chain: LQGGMLYPQESPSRECKELDGLWSFRADFSDNRRRGFEEQWYRRPLWESGPTVDMPVPSSFNDISQDWRLRHFVGWVWYEREVILPERWTQDLRTRVVLRIGSAHSYAIVWVNGVDTLEHEGGYLPFEADISNLVQVGPLPSRLRITIAINNTLTPTTLPPGTIQYLTDTSKYPKGYFVQNTYFDFFNYAGLQRSVLLYTTPTTYIDDITVTTSVEQDSGLVNYQISVKGSNLFKLEVRLLDAENKVVANGTGTQGQLKVPGVSLWWPYLMHERPAYLYSLEVQLTAQTSLGPVSDFYTLPVGIRTVAVTKSQFLINGKPFYFHGVNKHEDADIRGKGFDWPLLVKDFNLLRWLGANAFRTSHYPYAEEVMQMCDRYGIVVIDECPGVGLALPQFFNNVSLHHHMQVMEEVVRRDKNHPAVVMWSVANEPASHLESAGYYLKMVIAHTKSLDPSRPVTFVSNSNYAADKGAPYVDVICLNSYYSWYHDYGHLELIQLQLATQFENWYKKYQKPIIQSEYGAETIAGFHQDPPLMFTEEYQKSLLEQYHLGLDQKRRKYVVGELIWNFADFMTEQSPTRVLGNKKGIFTRQRQPKSAAFLLRERYWKIANETRYPHSVAKSQCLENSLFT
modifications: N-linked oligosaccharide at Asn173 (six mannose, one β-D-mannose, three N-acetyl glucosamine); single N-acetyl-glucopyranose at Asn272 (as seen in the electron density)
notes: β-glucuronidase, human, UniProt P08236; secreted enzyme; the final model holds residues 22 to 631 of each subunit; Homotetramer (subunits A, B, D, E) in the crystal; also called GUS; human GUS; source: CHO-K1, stably transfected, secreted
In general, stoichiometry N refers to a count of units in the complex or per binding partner. For the protein B1, the “stoichiometry N” value was found to be 4.
